The values that follow are results of earlier work, collected in paper PMC6472351.

Data set [1] deals with Histone H3 (Homo sapiens) (UniProt P68431).
The target is the same in data set [2]. The source holds these as a separate data set.

“And” between values parts separate entries of the source, which are not always exact repeats. Equal values may be shown once. Read-outs that look alike come from different tables or passages of the source.

One may read the Kd as the constant that tells how readily two partners part at equilibrium. DIDO PHD (from UniProt Q9BTC0): the Kd in data set [1] was 6 µM and 1 µM. GLP ankyrin (from UniProt Q9H9B1): in data set [2], the Kd is 5 µM and 7 µM.
